From publication PMC2737813 (Cell host & microbe, 2009)

Target: MBP-TRIM25-FLAG (human, UniProt Q14258 1-630)
Test: pull-down

Sequence of MBP-TRIM25-FLAG (Q14258 whole entry): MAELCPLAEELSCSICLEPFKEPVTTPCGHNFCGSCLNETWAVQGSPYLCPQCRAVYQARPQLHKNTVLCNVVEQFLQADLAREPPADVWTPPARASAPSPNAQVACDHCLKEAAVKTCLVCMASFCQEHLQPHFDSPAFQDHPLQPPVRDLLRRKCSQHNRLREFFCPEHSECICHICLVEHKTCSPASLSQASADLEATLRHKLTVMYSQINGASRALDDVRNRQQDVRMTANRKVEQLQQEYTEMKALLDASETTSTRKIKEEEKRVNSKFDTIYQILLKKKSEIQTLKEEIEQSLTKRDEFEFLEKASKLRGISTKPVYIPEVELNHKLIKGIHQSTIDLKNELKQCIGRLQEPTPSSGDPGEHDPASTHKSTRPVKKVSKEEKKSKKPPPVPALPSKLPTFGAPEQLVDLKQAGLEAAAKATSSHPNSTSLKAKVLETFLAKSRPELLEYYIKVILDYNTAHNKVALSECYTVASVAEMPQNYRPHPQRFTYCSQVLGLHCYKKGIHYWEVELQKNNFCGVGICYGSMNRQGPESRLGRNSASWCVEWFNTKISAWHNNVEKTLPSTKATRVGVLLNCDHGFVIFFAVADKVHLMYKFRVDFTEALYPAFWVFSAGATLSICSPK

B1: GST-PR8 wt NS1 (natural protein)
chain: MDPNTVSSFQVDCFLWHVRKRVADQELGDAPFLDRLRRDQKSLRGRGSTLGLDIETATRAGKQIVERILKEESDEALKMTMASVPASRYLTDMTLEEMSRDWSMLIPKQKVAGPLCIRMDQAIMDKNIILKANFSVIFDRLETLILLRAFTEEGAIVGEISPLPSLPGHTAEDVKNAVGVLIGGLEWNDNTVRVSETLQRFAWRSSNENGRPPLTPKQKREMAGTIRSEV
  binding result: binds
